Test results reported in publication PMC7335050, “Characterization of an alternative BAK-binding site for BH3 peptides” (Nature Communications, 2020).

Target: T1, BAKΔTM (human, UniProt Q16611 1-186)
T1 construct: BAK without the transmembrane segment, human, residues 1-186 of GenBank BC004431, in pET29b(+); Named His6-BAKΔTM in the liposome and cytochrome c assays; no tag removal is described; also called His6-BAKΔTM; WT BAKΔTM; source: E. coli BL21, purified (Ni2+-NTA-agarose, Superdex S200)
T1 sequence (looked up): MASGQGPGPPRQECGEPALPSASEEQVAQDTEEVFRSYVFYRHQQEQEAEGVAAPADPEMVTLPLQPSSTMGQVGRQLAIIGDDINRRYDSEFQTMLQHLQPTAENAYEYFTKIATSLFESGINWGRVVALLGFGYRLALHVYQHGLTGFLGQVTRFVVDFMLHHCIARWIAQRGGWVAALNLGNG
Assay: SPR; BAKΔTM or mutants immobilised on a CM5 chip (Biacore T200; about 4000 RU in the mutant comparisons), BH3 peptides injected at 30 µl per min for 1 min, 25 °C, 10 mM HEPES pH 7.4, 150 mM NaCl, 0.05 mM EDTA, 0.005% polysorbate 20; steady-state analysis, approximate constants
Conditions: both partners purified

- Kd: < 1 µM
B1: BMF BH3 peptide (peptide)
chain: HQAEVQIARKLQCIADQFHRLHVQQH
